The results in this text go back to doi:10.1101/2021.05.23.445342 (bioRxiv, 2021).

The target in experiment [1] is T1, Calcineurin (human PPP3CA / PPP3R1 heterodimer) (human, UniProt Q08209 1-521; P63098 1-170).
T1 construct: Calcineurin A subunit, human PPP3CA, from pET15b CnA CnB; Calcineurin B subunit, human PPP3R1, from pET15b CnA CnB; also called Cn; PP2B; source: E. coli BL21(DE3) or BL21 Star (DE3), purified (ammonium sulphate, Ni-NTA, Resource Q, S200 SEC)
The experiment in a line: ITC; ITC200, 25 °C; 250 µM AKAP5c or AKAP5c_(ILVF->SA) injected into 18.32 µM Calcineurin; 10 mM Tris/HCl pH 7.4, 150 mM NaCl, 5 mM DTT; 1-site model (average of two repeats) and 2-site model with fixed N = 1 (global fit). Particulars: both partners purified.

The target of experiment [2] is T1, Calcineurin (human PPP3CA / PPP3R1 …). The experiment in a line: SPR; Biacore T200, 25 °C; biotin-Cys-AKAP constructs immobilised on an SA chip, Calcineurin as analyte; 10 mM PIPES pH 6.5, 150 mM NaCl, 0.05% Tween20; apparent Kd from fit of the response at the end of association vs concentration ('steady-state'). Particulars: both partners purified. In general terms: In SPR one partner is held on a chip, and binding of the other changes the refractive index at the surface.

B1: AKAP5c_(ILVF->SA) (domain or fragment)
chain: VAEETKPKDTELSQESDFKENGITEEKSKSEESKRMEPIAIIITDTEISEFDVTKSKNVPKQASASAENEQVGVFANDNGFEDRTSEQYETASAETASSLVKNAAQSSAEQSANEMASDDNKINNLLQ
notes: AKAP5 (AKAP79), human, residues 300-427; all I, L, V and F residues of the three secondary sites mutated to S or A; PIAIIIT site present; Generated by gene synthesis (GeneArt); 15N-labelled for NMR, unlabelled for ITC; also called AKAP_(ILVF->SA); source: E. coli BL21(DE3) or BL21 Star (DE3), purified (heat step, Ni-NTA, Resource Q)
With B1, in experiment [1], the Kd was found to be 1500 nM and the “stoichiometry N” value is 0.99 AKAP5c:Cn.

B2: Biotin-Cys-AKAP5c_(ILVF->SA) (domain or fragment)
chain: CVAEETKPKDTELSQESDFKENGITEEKSKSEESKRMEPIAIIITDTEISEFDVTKSKNVPKQASASAENEQVGVFANDNGFEDRTSEQYETASAETASSLVKNAAQSSAEQSANEMASDDNKINNLLQ
modifications: biotin (EZ-Link Maleimide-PEG2-Biotin) on the unique added N-terminal Cys
notes: unique Cys added immediately after the GS of the thrombin or TEV site; AKAP5 (AKAP79), human, residues 300-427; all I, L, V and F residues of the three secondary sites mutated to S or A; A GS remnant of the protease site probably precedes the Cys; also called AKAP5c_(ILVF->SA) (on the SPR surface); source: E. coli BL21(DE3) or BL21 Star (DE3), purified (heat step, Ni-NTA, Resource Q), …
B2: in experiment [2], the Kd was around 600 nM.
